Experimental data reported in patent US20200325212.

Legend:
[1] = molecular target: CTLA4-Fc Mxx9 (non-cleavable mask), P16410
[2] = molecular target: CTLA4-Fc MMP9 (MMP9-cleavable CTLA4-Fc mask; CTLA4-Fc_WT)
[3] = molecular target: T1, mLCN2-Fc (bivalent m-Lcn2 fused to human IgG1 Fc)
T1 chain: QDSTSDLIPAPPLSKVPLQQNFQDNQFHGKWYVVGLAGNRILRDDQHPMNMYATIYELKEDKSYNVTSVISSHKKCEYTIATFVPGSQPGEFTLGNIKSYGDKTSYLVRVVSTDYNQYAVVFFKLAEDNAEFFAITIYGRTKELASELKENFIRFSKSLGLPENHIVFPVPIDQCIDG

Sequence of CTLA4-Fc MMP9 (MMP9-cleavable CTLA4-Fc mask; CTLA4-Fc_WT) (chain, as listed by the source): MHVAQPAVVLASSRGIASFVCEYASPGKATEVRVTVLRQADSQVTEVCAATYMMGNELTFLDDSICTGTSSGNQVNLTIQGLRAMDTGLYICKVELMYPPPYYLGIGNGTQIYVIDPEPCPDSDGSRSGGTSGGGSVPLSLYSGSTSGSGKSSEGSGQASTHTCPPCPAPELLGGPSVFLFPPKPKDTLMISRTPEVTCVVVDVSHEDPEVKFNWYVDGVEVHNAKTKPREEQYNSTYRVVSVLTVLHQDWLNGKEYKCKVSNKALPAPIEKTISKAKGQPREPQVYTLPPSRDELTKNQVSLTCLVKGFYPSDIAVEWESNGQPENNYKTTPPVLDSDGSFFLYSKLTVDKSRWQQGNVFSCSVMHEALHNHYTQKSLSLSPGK
Sequence of CTLA4-Fc Mxx9 (non-cleavable mask), P16410 (P16410 whole entry, looked up, tested part not stated): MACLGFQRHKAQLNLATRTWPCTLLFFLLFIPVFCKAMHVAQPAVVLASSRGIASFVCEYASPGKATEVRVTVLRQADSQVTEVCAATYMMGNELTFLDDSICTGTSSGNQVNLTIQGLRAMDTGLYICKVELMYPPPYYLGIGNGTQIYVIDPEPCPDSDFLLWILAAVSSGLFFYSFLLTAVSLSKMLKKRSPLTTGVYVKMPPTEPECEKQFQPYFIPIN

B1: recombinant human MMP9 (ProSpecBio) (protein)
chain: APRQRQSTLVLFPGDLRTNLTDRQLAEEYLYRYGYTRVAEMRGESKSLGPALLLLQKQLSLPETGELDSATLKAMRTPRCGVPDLGRFQTFEGDLKWHHHNITYWIQNYSEDLPRAVIDDAFARAFALWSAVTPLTFTRVYSRDADIVIQFGVAEHGDGYPFDGKDGLLAHAFPPGPGIQGDAHFDDDELWSLGKGVVVPTRFGNADGAACHFPFIFEGRSYSACTTDGRSDGLPWCSTTANYDTDDRFGFCPSERLYTQDGNADGKPCQFPFIFQGQSYSACTTDGRSDGYRWCATTANYDRDKLFGFCPTRADSTVMGGNSAGELCVFPFTFLGKEYSTCTSEGRGDGRLWCATTSNFDSDKKWGFCPDQGYSLFLVAAHEFGHALGLDHSSVPEALMYPMYRFTEGPPLHKDDVNGIRHLYGPRPEPEPRPPTTTTPQPTAPPTVCPTGPPTVHPSERPTAGPTGPPSAGPTGPPTAGPSTATTVPLSPVDDACNVNIFDAIAEIGNQLYLFKDGKYWRFSEGRGSRPQGPFLIADKWPALPRKLDSVFEERLSKKLFFFSGRQVWVYTGASVLGPRRLDKLGLGADVAQVTGALRSGRGKMLLFSGRRLWRFDVKAQMVDPRSASEVDRMFPGVPLDTHDVFQYREKAYFCQDRFYWRVSSRSELNQVDQVGYVTYDILQCPED
cleavage, SDS-PAGE [1]: Addition of MMP9 had no effect on CTLA4-Fc Mxx9 bands. | cleavage, SDS-PAGE [2]: Recombinant MMP9 was demonstrated to effectively cleave the CTLA4-MMP9-Fc mask | intensity of the full-length band, time course of cleavage at 37 °C, SDS-PAGE [2]: At 2 h the intensity of the full-length band was ~50% of the 0 h timepoint | cleavage, SDS-PAGE [3]: but not the m-Lcn2-Fc
